Test results published in publication PMC6586323, “Comparative analysis of the metal-dependent structural and functional properties of mouse and human SMP30” (PLoS ONE, 2019).

Experiments:
Test in all cases: purified protein
purified protein [1] = substrate: CCOP(=O)(OCC)SCCSCC; assay type: biochemical, Homo sapiens; settings: 1 mM Ca2+, 50 mM Tris-HCl pH 8.0, 0.1 mM DTNB, substrate range 1-10 mM
purified protein [2] = substrate: O=C1CCCS1; assay type: biochemical, Homo sapiens; settings: 1 mM Ca2+, 50 mM Tris-HCl pH 7.0, 0.1 mM DTNB, substrate range 1-10 mM
purified protein [3] = substrate: CCOP(=O)(OCC)SCCSCC; assay type: biochemical, Mus musculus; settings: 1 mM Ca2+, 50 mM Tris-HCl pH 8.0, 0.1 mM DTNB, substrate range 1-10 mM
purified protein [4] = substrate: O=C1CCCS1; assay type: biochemical, Mus musculus; settings: 1 mM Ca2+, 50 mM Tris-HCl pH 7.0, 0.1 mM DTNB, substrate range 1-10 mM

Row | Protein | Km (purified protein [1]) [mM] | Vmax (purified protein [1]) [µM/min] | kcat (purified protein [1]) [s⁻¹] | kcat/Km (purified protein [1]) [M⁻¹ s⁻¹] | Km (purified protein [2]) [mM] | Vmax (purified protein [2]) [µM/min] | kcat (purified protein [2]) [s⁻¹] | kcat/Km (purified protein [2]) [M⁻¹ s⁻¹] | Km (purified protein [3]) [mM] | Vmax (purified protein [3]) [µM/min] | kcat (purified protein [3]) [s⁻¹] | kcat/Km (purified protein [3]) [M⁻¹ s⁻¹] | Km (purified protein [4]) [mM] | Vmax (purified protein [4]) [µM/min] | kcat (purified protein [4]) [s⁻¹] | kcat/Km (purified protein [4]) [M⁻¹ s⁻¹]
1 | HuSMP30 (Homo sapiens) (protein) MSSIKIECVLPENCRCGESPVWEEVSNSLLFVDIPAKKVCRWDSFTKQVQRVTMDAPVSSVALRQSGGYVATIGTKFCALNWKEQSAVVLATVDNDKKNNRFNDGKVDPAGRYFAGTMAEETAPAVLERHQGALYSLFPDHHVKKYFDQVDISNGLDWSLDHKIFYYIDSLSYSVDAFDYDLQTGQISNRRSVYKLEKEEQIPDGMCIDAEGKLWVACYNGGRVIRLDPVTGKRLQTVKLPVDKTTSCCFGGKNYSEMYVTCARDGMDPEGLLRQPEAGGIFKITGLGVKGIAPYSYAG | 17.45 ± 5 | 0.0357 | 0.00808 | 0.467 | 19.8 ± 2.9 | 0.453 | 0.102 | 5.17 | – | – | – | – | – | – | – | –
2 | MoSMP30 (Mus musculus) (protein) MSSIKVECVLRENYRCGESPVWEEASQSLLFVDIPSKIICRWDTVSNQVQRVAVDAPVSSVALRQLGGYVATIGTKFCALNWENQSVFVLAMVDEDKKNNRFNDGKVDPAGRYFAGTMAEETAPAVLERHQGSLYSLFPDHSVKKYFDQVDISNGLDWSLDHKIFYYIDSLSYTVDAFDYDLQTGQISNRRIVYKMEKDEQIPDGMCIDAEGKLWVACYNGGRVIRLDPETGKRLQTVKLPVDKTTSCCFGGKDYSEMYVTCARDGLNAEGLLRQPDAGNIFKITGLGVKGIAPYSYAG | – | – | – | – | – | – | – | – | 3.57 ± 1.5 | 0.0085 | 0.00193 | 0.533 | 39.49 ± 7.9 | 0.286 | 0.0647 | 1.63
